Test system: human multiple myeloma cell RPMI 8226
Assay: Morphological observation of induced apoptosis (MGG staining)
Assay type: cell-based
Settings: 200 ng/ml, 3 h
Protocol: FIG. 3. The morphological change of the apoptosis of human multiple myeloma cell RPMI 8226 induced by NCPT-1.M1. The cells were incubated with NCPT-1.M1 (200 ng/ml) for 3 h and then prepared as smears before MGG staining.
The RPMI 8226 cells (ATCC) were cultured in cell culture flasks until logarithmic growth phase, collected by centrifugation, resuspended with complete medium (10% FBS-RPMI1640) at 1×10^6/well, added into 6-well cell culture plate (Costar). The NCPT-1.M1 was diluted with complete medium, added to a final concentration of 200 ng/ml, incubated at 37° C. in 5% CO2 incubator for 3 h. The cells were collected, prepared as smears, fixed with methanol before May-Grünwald-Giemsa (MGG, May-Grünwald stain, commercial available from Beijing ZhongYe HengYuan Chemicals, Giemsa stain, commercial available from Solarbio) staining.

B1: NCPT-1.M1: MG+His6+NCPT-1 fusion protein, SEQ ID NO: 5 (protein)
chain: MGHHHHHHTLSSPNSKNEKALGRKINSWESSRSGHSFLSNLHLRNGELVIHEKGFYYIYSQTYFRFQEEIKENTKNDKQMVQYIYKYTSYPDPILLMKSARNSCWSKDAEYGLYSIYQGGIFELKENDRIFVSVTNEHLIDMDHEASFFGAFLVGGGGGGRVAAHITGTRGRSNT
modifications: NCPT-1.M1 polypeptide sequence
morphological features of apoptosis (MGG staining): obvious features of apoptosis were observed
